From paper PMC8104893 (Science Advances, 2021)

Target: T1, GST-XBAT31 (Arabidopsis, UniProt Q94B55 1-456)
T1 sequence (looked up): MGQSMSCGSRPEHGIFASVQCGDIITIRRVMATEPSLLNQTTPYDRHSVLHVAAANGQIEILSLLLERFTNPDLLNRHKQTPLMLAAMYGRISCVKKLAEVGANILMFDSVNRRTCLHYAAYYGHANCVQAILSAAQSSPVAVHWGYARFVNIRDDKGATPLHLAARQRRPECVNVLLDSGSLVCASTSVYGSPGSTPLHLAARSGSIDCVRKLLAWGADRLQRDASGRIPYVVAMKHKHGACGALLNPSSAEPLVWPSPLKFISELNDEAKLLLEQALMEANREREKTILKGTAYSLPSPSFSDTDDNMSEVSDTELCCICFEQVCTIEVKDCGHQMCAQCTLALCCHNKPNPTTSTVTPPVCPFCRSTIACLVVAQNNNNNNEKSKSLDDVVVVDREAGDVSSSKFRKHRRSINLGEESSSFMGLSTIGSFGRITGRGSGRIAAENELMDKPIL
Experiment: pull-down

binding result: binds
B1: MBP-BBX18 (natural protein, Arabidopsis, UniProt Q9SJU5 1-172, looked up)
chain: MRILCDACESAAAIVFCAADEAALCCSCDEKVHKCNKLASRHLRVGLADPSNAPSCDICENAPAFFYCEIDGSSLCLQCDMVVHVGGKRTHRRFLLLRQRIEFPGDKPNHADQLGLRCQKASSGRGQESNGNGDHDHNMIDLNSNPQRVHEPGSHNQEEGIDVNNANNHEHE
